The test addresses murine TMEM219 expressed on murine islets and the murine beta cell line beta-TC (mouse) (UniProt Q9D123). Put plainly: cell-based or functional assay.
Chain of UniProt Q9D123 (Q9D123 39-240): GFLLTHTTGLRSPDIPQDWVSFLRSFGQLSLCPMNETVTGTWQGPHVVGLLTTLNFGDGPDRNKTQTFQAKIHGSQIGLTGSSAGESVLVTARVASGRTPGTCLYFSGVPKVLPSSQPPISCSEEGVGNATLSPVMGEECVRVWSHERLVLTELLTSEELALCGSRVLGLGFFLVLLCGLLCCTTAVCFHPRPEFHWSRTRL

In turn, “recombinant human IGFBP3 (Life Technologies, 10430H07H5) (from UniProt P17936 28-291) (ligand)” yielded an early apoptosis of murine islets by FACS (Annexin V+ 7AAD-), IGFBP3-treated vs. untreated of 87%.

Source of the values: patent US20210169973A1.
